Reference: publication PMC4858740 (2016)

T1: CD45RO ECD (human)
T1 chain: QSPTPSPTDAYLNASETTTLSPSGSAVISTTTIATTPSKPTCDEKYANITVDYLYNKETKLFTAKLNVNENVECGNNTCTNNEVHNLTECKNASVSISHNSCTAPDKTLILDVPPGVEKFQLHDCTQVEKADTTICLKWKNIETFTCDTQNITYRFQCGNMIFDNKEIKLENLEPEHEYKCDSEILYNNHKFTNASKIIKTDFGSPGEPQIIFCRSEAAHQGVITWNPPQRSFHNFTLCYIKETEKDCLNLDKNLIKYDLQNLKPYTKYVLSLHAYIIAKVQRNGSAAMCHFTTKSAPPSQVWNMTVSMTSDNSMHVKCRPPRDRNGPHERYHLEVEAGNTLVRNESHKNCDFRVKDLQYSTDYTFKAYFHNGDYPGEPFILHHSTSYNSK

T2: SLAMF6 ECD (human, UniProt Q96DU3 22-226)
T2 chain: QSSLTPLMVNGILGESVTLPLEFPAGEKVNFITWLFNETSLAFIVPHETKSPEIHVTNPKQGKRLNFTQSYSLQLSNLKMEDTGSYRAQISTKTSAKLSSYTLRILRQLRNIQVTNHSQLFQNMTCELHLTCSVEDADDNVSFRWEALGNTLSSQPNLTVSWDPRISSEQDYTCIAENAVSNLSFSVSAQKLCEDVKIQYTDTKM

T3: SLAMF4 ECD (human, UniProt Q9BZW8 22-229)
T3 chain: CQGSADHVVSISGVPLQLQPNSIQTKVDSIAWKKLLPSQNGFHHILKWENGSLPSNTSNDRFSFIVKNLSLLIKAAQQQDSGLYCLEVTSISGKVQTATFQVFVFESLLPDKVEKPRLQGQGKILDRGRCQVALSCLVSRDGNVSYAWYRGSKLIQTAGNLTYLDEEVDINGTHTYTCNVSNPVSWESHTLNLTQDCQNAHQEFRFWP


Target: T1, CD45RO ECD
Assay: SPR

Binder	Kd [nM]
HAdV-D43 E3/49K (Fc fusion) QIEHEKQSVQWGKNITLVGPNDKPVEWHGPRDQLCKGKQILHPEFNHTCNEQNLTLLFVNNTFQGIYYGIRNDGRGMKQIQLTVVAPPASTRKPLSKPKQVNVQYGHNVTLEGPPGIPIDWLGPTNQLCKGKEILHPEINHTCNVQNLTLLFVNYTHRGAYFGFNKDGTDRHHYEVTILDGFTNAGQTKEESVSDKSKGKTSSKEKKTQKNNSQRNDDVKELDFPSGSNQTLVGPPGSKVDWYTTKNGDFTKLCDGLNGPKNLCNYQNLTLRNVSRQDEGTYFGSNEQSKHYRVTVYTKPRNQTKRIQPYTTKGTTKSTLGNHSFELQLADDQSNQQDQQIPSTT	0.38
HAdV-D9 E3/49K (Fc fusion) GIINLNVSWGMNLTLVGPSDLPVTWYDGKGMQFCDGNTIKNPQIKHSCNQQNLTLLNADKSHERTYLGYRHDSKGKVDYKVTVIPPPPATRKPLSEPHYVTVTMGDNITLVGPSDLPVTWYDGEGNKFCDGEKVEHAEFNHTCNIQNLTLLFVNLTHNGAYIGYNKDGSDRELYEVSVKTLFQNGAGQSKVEQGNKGKPNTAQSGGKKTKTEHRNQSPKRKSTNNLQPTQLYVRPFTNVSLTGPPNGKVTWYDGELNDPCEQKYKLRTFCNQQNLTLINVSSTYDGIYYGTDEKDKANRYRIKVNTTNHKTVKIKPHTREPPAVQEKQFELQDAETDENESKIPSAT	0.08
HAdV-D28 E3/49K (Fc fusion) QAVHVNLEICYGCNGTLIGPPKTPVEWYDGRGHKLCAGTDTFRKELNHTCNLQNMTLTFVNLTHKGTYYGFGSDNKNSRVYQVTIKPPVLTTRRPLLKPEDVVITKGNNKTLVGPPDTPVDWYDGSGHKLCKGKEVHYPELNHTCNEQNLTLIFVNATFKGTYYGFRKDGTDKKEYRVTIDDLYAKQLKQEKDEKPRSGHDKQKSKSQERQNPKTEERHEHRDVVKEVSFRTGTNQTLVGPPGSNVDWLKIGNGGTFSELCKGDDKHYSCNSQNLTIINVTRSDEGSYYGSNDDSAHYRVSVYDPVQKKRVMKIQPHTTKTTTEGTTKSSTNESDENFALQQGNNGENNQSDETNIPS	0.33
HAdV-D58 E3/49K (Fc fusion) SQAGFHTINATWWANITLVGPSDTPVTWYDKQGMQFCDGNTVKNPQIRHECNEQNLTLIHVNKTHERTYMGYNRQSTHKEDYKVIVIPPPPATVKPQSGPEYVYVNMGENKTLVGPPGIPVTWYDGEGNKFCDGEKVEHAEFNHTCDVQNLTLLFINLTHDGAYLGYNHQGTKRTWYEVVVTDGFPKSGEMKIEDQSRQTEQKQTGQKQNEHKQGGQKQEGQKETSQKKANDKQKATHRRPSKLKPHTPEAKLITVSSGSNLTLLGPDGKVTWYDDDLKRPCEPGYKLNCKCDNQNLTLINVTKLYEGVYYGTNDGGNGKRYRVKVNTTNSQNVKIQPYTRPTTPDQKHRFELQIDYNQDNDKIPSTT	0.38
HAdV-D37 E3/49K (Fc fusion) GFHTINATWWANITLVGPPDTPVTWYDTQGLWFCNGSRVKNPQIRHTCNDQNLTLIHVNKTYERTYMGYNRQGTKKEDYKVVVIPPPPATVKPQPEPEYVFVYMGENKTLEGPPGTPVTWFNQDGKKFCEGEKVLHPEFNHTCDKQNLILLFVNFTHDGAYLGYNHQGTQRTHYEVTVLDLFPDSGQMKIENHSEETEQKNDEHHNWQKQGGQKQGGQKTNQTKVNDRRKTAQKRPSKLKPATIEAMLVTVTAGSNLTLVGPKAEGKVTWFDGDLKRPCEPNYRLRHECNNQNLTLINVTKDYEGTYYGTNDKDEGKRYRVKVNTTNSQSVKIQPYTRQTTPDQEHKFELQFETNGNYDSKIPSTT	0.11
HAdV-D19a E3/49K (Fc fusion) GFHTINATWWANITLVGPPDTPVTWYDTQGLWFCNGSRVKNPQIRHTCNDQNLTLIHVNKTYERTYMGYNRQGTKKEDYKVVVIPPPPATVKPQPEPEYVFVYMGENKTLEGPPGTPVTWFNQDGKKFCEGEKVLHPEFNHTCDKQNLILLFVNFTHDGAYLGYNHQGTQRTHYEVTVLDLFPDSGQMKIENHSEETEQKNDEHHNWQKQGGQKQGGQKTNQTKVNDRRKTAQKRPSKLKPATIEAMLVTVTAGSNLTLVGPKAEGKVTWFDGDLKRPCEPNYRLRHECNNQNLTLINVTKDYEGTYYGTNDKDEGKRYRVKVNTTNSQSVKIQPYTRQTTPDQEHKFELQFETNGNYDSKIPSTT	0.06
HAdV-D47 E3/49K (Fc fusion) EAETVIVDVKSGTNHTLEGPRKTPVQWYGGADFIMYCNGSKIHHKELNHTCSIQNITLTFINRTHHGTYYGFASDNQNSKVYHVRVDLEPPRPRATLAPPQDITIKYGSNRTLQGPNVTPVSWYDGEGNRFCDGDEIDHPELNHTCNAQNLTLLFVNETHERTYYGVSGDWKQRNEYDVTVIKTQNHKNAMQQKVEQKVEQKPSKRPKQKTLQTTIQVTIPIGSNYTLVGPSPPVSWHTTKNGLTELCNGNPILRHTCDGQNITLINVNATFEADYYGSNNNSESKHYRVKVFKQRKDQALLFRPLTTKGTTGGSTVNEQFALQQGNDKTNQNDEQIPSTT	0.01
HAdV-D39 E3/49K (Fc fusion) KIDNEDVIGHWGKNITLVGPPEKPIEWHGPRVQLCDGSKILHPEFNHTCNEQNLTLIFLNNSFNGKYYGIRKDGFGMKQYTLKVIAPKASTRRPLSPPQQIDVRMGQNVTLVGPVDTPVNWHGPKHELCRGSQVIHPEVNHTCNEQNLTLLFVNYTFWGAYLGFNRYGTDRVHYEVTIIDGFKNAGQQKDETGQHNPSNKDRPNPKVKNPQRTKNTHKTNTQNKKDIEKDFRKGTNQTLVGPPGSKVDWYEGKNGDLVKLCDGKSGLKVSCNDQNITLINVNETYSGTYYGSNDEDHRQYKVTVYTIPRNETVKIQPHTTKGTTGGSTVNEQFALQQDNDRTNQNDEQIPSTT	0.39
HAdV-D51 E3/49K (Fc fusion) LLESKVVKIPYGSTYVLVGPRDPPVQWFGGGDFTMFCNGSKTHLQNIRHTCNEQNLTLLSVGYGHRGDYYGFRHDNTGRKHYKVIIEAPPPVTRKPLSEIKYVNVTMGQNLTLSGPPGTPVTWHGEGHKLCEGKNVFYRELNHTCTEKDLILLFVNRTHNGPYIGYNKEGTDREHYEVSVLDLMPIAGQGLDSKNKEQKIPPKRKSKDKVQEVNFPTGTDQTLIGPPGQKIDWHVSSNDGQFKKLCETKDGKHSCHGRNITIFNISRADEGSYYGSSHDGSSHYKVTVYDKSSFGKAKIKIDPYTTKGTTTENYEFELQQGNDESDDQKQIPSTT	0.06
HAdV-D24 E3/49K (Fc fusion) GIHIINATWWDNITLVGPSDTPVTWYDGKGLQFCDGSTVKNPQIRHTCNDQNLTLIHVNKTHERTYMGYRHDSKGKVDYKVTVIPPPPATVKPQPDPENVFVYMGNNVTLVGPPGIPVSWYYHNGTQFCDGDKIIHPEFNHTCDKQNLTLLFVNFTHDGGYLGFNYKGTQRIQYEVIVLDRFPNSGQMKIEEQSEETEQKHTEHNKAGQKQGIDTNQKKANNRQKPSQRPSRRRPTNTPETKQLTVSIGSNLTLVGPDGKVTWYDGDLKRPCEEQNYRLPHQCSAQNLTLINVTKSHEGTYYGTNDKDESKRYRVKVNTTNSQAVKINPYTRPTTPDQKHRFELQIENNANDEESKIPSTT	0.08

Target: T2, SLAMF6 ECD
Assay: SPR

Binder	Kd [nM]
HAdV-B55 CR1β (Fc fusion) QTVVSIPLGHNYTLIGPPITSEVIWTKLGSVDYFDIICNKTKPIIVTCNIQNLTLINVSKVYSGYYYGYDRYSSQYRNYLVRVTQSKTTKMPNMAEIRSDDNSLETFTSSTTPDEKNIPDS	13

Target: T3, SLAMF4 ECD
Assay: SPR

Binder	Kd [nM]
HAdV-A18 CR1β (Fc fusion) QTAERPLKVVAEAGHNVTLPHLLPGFNKTGHVTWLIEIPDYGSAPSNKFVFSGQKLCEFASKNLTWSFPQLIFKCDNYDITLFWLKIENSAIYNVKNTIEATESNIYYQLTVIQINPPNCIITSKYLTEDYCHITINCTNSRYPNKVIFNNVTRSYYGYAKGSSTLPNYFTTSFNVSGITKTFKHNYPFSELCTYPSSENFYNSKETVST	62
HAdV-F41 CR1β (Fc fusion) AVPEKTLNNLVRVYALVGTNLSLDSMKTPQIDELTSLSWIKQEDNPNKNLQSFFFIGQKLCEVTKDKITVFNYYPLEFSCANVTLYLYNLKTDDSGLYNGKAHTKELEHNTYVRLYVIDIPPPKCDITSRYLGIQATGEDYCLIEINCTNSKYPAVVKFNGRQSNFYHYVSENGNKELPNFYETHITVNGTHKSFHFNYPFNDLCQTTSALQYNDNVQ	44
